The target of assay [1] is human ferroportin (SLC40A1) fused in frame with GFP, stably expressed in HEK293 cells (human) (UniProt Q9NP59). Put plainly: cell-based or functional assay.
Assay [2] addresses T1, ferroportin (endogenously expressed in T47D cells) (Homo sapiens, UniProt Q9NP59).
T1 construct: is a human breast carcinoma adherent cell line which endogenously expresses ferroportin; host or cells: T47D
T1 sequence (Q9NP59 1-571): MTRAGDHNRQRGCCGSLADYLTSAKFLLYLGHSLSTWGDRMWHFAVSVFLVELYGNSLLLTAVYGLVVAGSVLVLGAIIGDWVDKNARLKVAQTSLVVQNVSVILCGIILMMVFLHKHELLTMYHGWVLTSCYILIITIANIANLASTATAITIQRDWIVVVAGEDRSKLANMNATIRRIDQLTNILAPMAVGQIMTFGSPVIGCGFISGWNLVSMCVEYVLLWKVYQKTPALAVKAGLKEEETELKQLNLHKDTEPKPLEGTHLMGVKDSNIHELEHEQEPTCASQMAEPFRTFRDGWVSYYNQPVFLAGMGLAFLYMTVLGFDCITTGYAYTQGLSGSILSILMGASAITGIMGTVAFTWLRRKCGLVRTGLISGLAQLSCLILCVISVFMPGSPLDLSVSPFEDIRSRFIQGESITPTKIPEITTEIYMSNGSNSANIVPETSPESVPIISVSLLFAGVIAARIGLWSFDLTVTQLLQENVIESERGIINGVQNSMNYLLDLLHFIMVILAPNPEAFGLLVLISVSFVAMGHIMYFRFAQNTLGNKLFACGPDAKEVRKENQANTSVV
Put plainly: T47D cell-based ferroportin internalization assay in presence of 0.5% mouse serum albumin (AF647-conjugated detection peptide, flow cytometry). Particulars: read-out: IC50: T47D Internalization MSA. The method, then: The potency of the peptides in causing ferroportin internalization was evaluated in a T47D cell-based assay. […] In this internalization assay, the potency of the test peptides was evaluated in the presence of serum albumin, which is the main protein component in the blood. T47D cells were maintained in RPMI media (containing required amount of fetal bovine serum) and regularly sub-cultured. […] The test peptide dilution series were allowed to incubate at room temperature for 30 min. Then the media was aspirated from the 96-well cell plate and test peptide dilution series were added. After 1 hr incubation, the media with test peptides was aspirated out and AF647-conjugated detection peptide was added at fixed concentration of 200 nM. […] The cells were washed again after a 2 hr incubation in preparation for flow cytometry analysis. The Median Fluorescence Intensity (MFI) of the AF647-positive population was measured (after removing dead cells and non-singlets from the analysis). The MFI values were used to generate a dose-response curve and obtain IC50 potencies for the test peptides.
(In general: Flow cytometry measures light scatter and fluorescence of single cells or particles in a stream.)

The subject of a further assay is LAD2 cells. Format: cell-based, human. From the text:
In anaphylactoid reactions, the main mechanism involves the direct stimulation of mast cells or basophils, leading to the release of anaphylactic mediators such as histamine and β-hexosaminidase. A recent study by McNeil et al. (McNeil B D et al., 2015) reported that MrgprX2, a specific membrane receptor on human mast cells, induces anaphylactoid reactions. The LAD2 (Laboratory of Allergic Diseases 2) human mast cell line, derived from human mast cell sarcoma/leukemia (Kirshenbaum et al., 2003), is commonly employed to study anaphylactoid reactions, because its biological properties are identical to those of primary human mast cells, including the overexpression of the MrgprX2 receptor and sensitivity towards degranulating peptides (Kulka et al., 2008). The release of anaphylactic mediators such as f-hexosaminidase, is assessed by fluorometric quantification.
On the day of the assay, serial dilutions of compounds were added to LAD2 cells plated at 20000 cells/well in a 96-well plate. After incubation for 30 minutes, the amount of β-hexosaminidase released into the supernatants and in cell lysates was quantified using the fluorogenic substrate 4-methylumbelliferyl-N-acetyl-b-D-glucosaminide. Dose-response curves were generated by plotting the % of β-hexosaminidase release (y-axis) against the concentrations of peptides tested (x-axis). […]. (Table 2D).

In another assay the target is T2, human ferroportin (Homo sapiens, UniProt Q9NP59).
T2 construct: expressed in transfected cells
T2 sequence (Q9NP59 1-571): T1 sequence (Q9NP59 1-571)
Kind of assay: FPN activity assay: internalization/degradation of ferroportin-GFP in stably transfected HEK293 cells (decrease in GFP fluorescence). The format is cell-based. Conditions: Table 2B; HEK293 cells expressing human ferroportin-GFP, at least 18 hours incubation; read-out: FPN EC50. The method, then:
Following internalization, the ferroportin protein is degraded.
A retro inverse peptide is a peptide with a reversed sequence in all D amino acids. An example is that Hy-Glu-Thr-His-NH2 becomes Hy-DHis-DThr-DGlu-NH2. The EC50 of these reference compounds for ferroportin internalization/degradation was determined according to the FPN activity assay described above. These peptides served as control standards.
These values were determined as described herein.

Assay [3] deals with T3, ferroportin endogenously expressed on T47D human breast carcinoma cells (human, UniProt Q9NP59 1-571).
T3 sequence (looked up): T1 sequence (Q9NP59 1-571)
Kind of assay: cell-based or functional assay.

For assay [4], the target named is T4, human ferroportin (SLC40A1) fused in frame with GFP, stably expressed in HEK293 cells (human, UniProt Q9NP59 1-571).
T4 sequence (looked up): T1 sequence (Q9NP59 1-571)
Put plainly: cell-based or functional assay.

Assay [5] addresses T4, human ferroportin (SLC40A1) fused in …. Kind of assay: cell-based or functional assay. The source holds these as a separate data set.

The values that follow come from patent US20230295259A1 (Protagonist Therapeutics, Inc., priority 2020, published 2023).

Starred links: 1 amine or outer side, 2 acyl side, 3 side chain; linkers in the order of their positions; H or OH if unused. Positions of bridges follow the written chain, without caps; N, C: chain ends. Non-standard residues stand in square brackets, D forms with d. Groups on a side chain read outwards from the residue. No end group written: not given here. *: point of attachment. PEG12 = NCCOCCOCCOCCOCCOCCOCCOCCOCCOCCOCCOCCOCCC(=O)O; C18 diacid = O=C(O)CCCCCCCCCCCCCCCCC(=O)*; Dip = N[C@H](C(=O)O)C(c1ccccc1)c1ccccc1; γGlu = O=C(O)[C@H](CCC(=O)[*:2])N[*:1]; Palmitoyl = CCCCCCCCCCCCCCCC(=O)*; β3hF = N[C@H](CC(=O)O)Cc1ccccc1; Isovaleryl = CC(C)CC(=O)*; Dap = NC[C@H](N)C(=O)O; AEEA = NCCOCCOCC(=O)O

On to Hepcidin (peptide), for which, in assay [1], the Potency EC50 worked out at 34 nM.

A word on the IC50: it is the concentration that inhibits the measured activity by half. One may read the EC50 as the concentration giving half of the maximal effect. The low end stands for an effect from little substance, the high end for a need for much substance. Regarding `CC[C@H](C)[C@@H]1NC(=O)[C@@H](NC(=O)[C@@H]2CCCN2C(=O)[C@@H](NC(=O)[C@H](Cc2cnc[nH]2)NC(=O)[C@@H](NC(=O)[C@H](CCC(=O)OC)NC(=O)CC(C)C)[C@@H](C)O)C(c2ccccc2)c2ccccc2)CSSC[C@@H](C(N)=O)NC(=O)[C@@H](CCCCN)NC(=O)C[C@H](Cc2ccccc2)NC(=O)[C@H](CCCCNC(=O)COCCOCCNC(=O)COCCOCCNC(=O)[C@H](CN)NC(=O)CCCCCCCCCCCCCCCCC(=O)O)NC1=O` [Compound 279, Isovaleric Acid-[Glu_OMe]-T-H-[Dpa]-P—C—I-[Lys(1PEG2_1PEG2_Dap_C18_Diacid)]-[bhPhe]-[(D)Lys]-C—NH2], the half-maximal inhibitory concentration (IC50) in assay [2] was 15.4 nM. Moreover, the EC50 in the assay with LAD2 cells is 8000 nM.

RI-Mini Hepcidin (peptide): the Potency EC50 (nM) in assay [1] was greater than 10000 nM.

With Mini-Hepcidin 1-9 (peptide), the Potency EC50 in assay [1] turned out to be 712 nM.

Turning to `CC[C@H](C)[C@@H]1NC(=O)[C@@H](NC(=O)[C@@H]2CCCN2C(=O)[C@@H](NC(=O)[C@H](Cc2cnc[nH]2)NC(=O)[C@@H](NC(=O)[C@H](CCC(=O)O)NC(=O)CC(C)C)[C@@H](C)O)C(c2ccccc2)c2ccccc2)CSSC[C@@H](C(N)=O)NC(=O)[C@@H](CCCCN)NC(=O)C[C@H](Cc2ccccc2)NC(=O)[C@H](CCCCNC(=O)COCCOCCNC(=O)COCCOCCNC(=O)[C@H](CN)NC(=O)CCCCCCCCCCCCCCCCC(=O)O)NC1=O` [Compound 278, Isovaleric Acid-E-T-H-[Dpa]-P—C—I-[Lys(1PEG2_1PEG2_Dap_C18_Diacid)]-[bhPhe]-[(D)Lys]-C—NH2], the IC50 in assay [2] stood at 14.2 nM. In the assay with LAD2 cells, this molecule had an EC50 of 15500 nM. In addition, at human ferroportin, the DC50 came to 4.3 nM.

On to Isovaleryl-ETH[Dip]PCIK([PEG12-Palmitoyl])[β3hF]K(PEG30K)RC-NH2 (disulfide 6-12 (inferred)) [Compound 294], for which the “IC50: T47D Internalization MSA” value in assay [3] was 7.19 nM.

B1: Compound 202 (peptide)
peptide: XETXXPCIXXXC
modifications: Isovaleric Acid-E-T-[His_1Me]-[Dpa]-P-C-I-[Lys(PEG12_Palm)]-[bhPhe]-[(D)Lys]-C-NH2
Consider B1, for which the “FPN EC50” value in assay [4] came to 25.6 nM.

B2: Compound 256 (peptide)
peptide: XETHXPCIXXXC
modifications: not fully specified; Isovaleric Acid-E-T-H-[Dpa]-P-C-I-[Lys(1PEG2_1PEG2_Ahx_C18_Diacid)]-[bhPhe]-[(D)Lys(PEG7_OMe)]-C-NH2
Regarding B2, the “IC50: T47D Internalization MSA” value in assay [3] is 68.9 nM.

On to Isovaleryl-ETHFPCIK([γGlu-C18 diacid])FEPRSKGCK-NH2 (not fully specified (bridges); cysteine pairing not given here) [Compound 222], for which the “IC50: T47D Internalization MSA” value in assay [3] was greater than 1000 nM.

B3: Compound 279 (peptide)
peptide: XXTHXPCIXXXC
modifications: Isovaleric Acid-[Glu_OMe]-T-H-[Dpa]-P-C-I-[Lys(1PEG2_1PEG2_Dap_C18_Diacid)]-[bhPhe]-[(D)Lys]-C-NH2
As for B3, the “IC50: T47D Internalization MSA” value in assay [3] turned out to be 15.4 nM.

B4: Compound 297 (peptide)
peptide: XETHXPCIXXXC
modifications: Isovaleric Acid-E-T-H-[Dpa]-P-C-I-[Lys(1PEG2_1PEG2_Ahx_C18_Diacid)]-[bhPhe]-[(D)Lys(PEG40KB-C-NH2)
B4: in assay [4], the “FPN EC50” value is 1360 nM.

With Isovaleryl-ETH[Dip]PCIK(PEG40KB)[β3hF]K([PEG12-Palmitoyl])RC-NH2 (disulfide 6-12 (inferred)) [Compound 296, listing 1 of 2 here], the “FPN EC50” value in assay [4] turned out to be 1080 nM.

Take Isovaleryl-ETH[Dip]PCIK([PEG12-Palmitoyl])[β3hF]K(PEG40KB)RC-NH2 (disulfide 6-12 (inferred)) [Compound 295, listing 1 of 2 here]: in assay [3], the “IC50: T47D Internalization MSA” value was 9.22 nM.

Consider Isovaleryl-ET[Dap][Dip]PCI[dK][β3hF]K([PEG12-Palmitoyl])RC-NH2 (disulfide 6-12 (inferred)) [Compound 603], for which the “FPN IC50 (nM), grade: *=>500 nM” value in assay [5] was greater than 500 nM.

As for Isovaleryl-ETHFPCIK([AEEA-AEEA-γGlu-C18 diacid])FEPRSK(Ac)GCE (disulfide 6-16 (inferred)) [Compound 215], the “FPN EC50” value in assay [4] was greater than 3000 nM.

B5: Compound 314 (peptide)
peptide: XETHXPCIXXXC
modifications: Isovaleric Acid-E-T-H-[Dpa]-P-C-I-[Lys(1PEG2_1PEG2_Ahx_Palm)]-[bhPhe]-[(D)Lys(PEG20K-C-NH2)
B5: the “FPN EC50” value in assay [4] is 357 nM.

B6: Compound 611 (peptide)
peptide: XEXHXPCIXXXXC
modifications: not fully specified; [Isovaleric Acid]-E-S-H-[Dpa]-P-C-I-[(D)Lys]-[aMePhe]-[Lys(PEG12_Palm)]-[(D)Lys]-C-NH2
As to B6, the “FPN IC50 (nM), grade: *=>500 nM” value in assay [5] is greater than 500 nM.

For the molecule Isovaleryl-ETH[Dip]PCIK(PEG40KB)[β3hF]K([PEG12-Palmitoyl])RC-NH2 (disulfide 6-12 (inferred)) [Compound 296, listing 2 of 2 here], the “IC50: T47D Internalization MSA” value in assay [3] came out at 109 nM.

B7: Compound 312 (peptide)
peptide: XETHXPCIXXXC
modifications: Isovaleric Acid-E-T-H-[Dpa]-P-C-I-[Lys(Ahx_Palm)]-[bhPhe]-[(D)Lys(PEG20K)]-C-NH2
Consider B7, for which the “FPN EC50” value in assay [4] came out at 32.6 nM.

Consider Isovaleryl-ETH[Dip]PCIK([PEG12-Palmitoyl])[β3hF]K(PEG40KB)RC-NH2 (disulfide 6-12 (inferred)) [Compound 295, listing 2 of 2 here], for which, in assay [4], the “FPN EC50” value was 1780 nM.

B8: Compound 279 (peptide)
peptide: XXTHXPCIXXXC
modifications: Isovaleric Acid-[Glu_OMe]-T-H-[Dpa]-P-C-I-[Lys(1PEG2_1PEG2_Dap_C18_Diacid)]-[bhPhe]-[(D)Lys]-C-NH2
Consider B8, for which the “FPN EC50” value in assay [4] is 11.4 nM.

B9: Compound 278 (peptide)
peptide: XETHXPCIXXXC
modifications: Isovaleric Acid-E-T-H-[Dpa]-P-C-I-[Lys(1PEG2_1PEG2_Dap_C18_Diacid)]-[bhPhe]-[(D)Lys]-C-NH2
Take B9: the “FPN EC50” value in assay [4] came out at 4.3 nM.

Regarding Isovaleryl-ETHFPCIK([AEEA-AEEA-γGlu-C18 diacid])FEPRSK(Ac)GCT (disulfide 6-16 (inferred)) [Compound 214], the “FPN EC50” value in assay [4] is greater than 3000 nM.

B10: Compound 272 (peptide)
peptide: XETHXXCIXXXC
modifications: Isovaleric Acid-E-T-H-[Dpa]-[Npc]-C-I-[Lys(1PEG2_1PEG2_IsoGlu_C18_Diacid)]-[bhPhe]-[(D)Lys]-C-NH2
Consider B10, for which the “IC50: T47D Internalization MSA” value in assay [3] stood at 137 nM.
